Assay results from the nanobody polyreactivity screen of Harvey et al. (2022).

Experiment: yeast display, Sf9 membrane polyspecificity reagent, FACS + sequencing; frameworks hold sequencing errors
Outline: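 Sorting gates, low and high (top ~1%), were placed on anti-HA fluorescence to track expression and on streptavidin fluorescence to track reagent binding. A clone's polyreactivity label is taken from the gate it came out of. The reagent was 10% biotinylated, detergent-solubilized Sf9 membrane, applied for 1 hour at 4 °C to galactose-induced yeast display cells.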

Row | Sequence | polyreactivity (PSR sort gate)
1 | QVQLVESGGGLVQAGGSLRLSCAASGSTFNRYAMGWYRQAHGKERELVAGISYRGGTYYSDSVKGRFTISRDNAKNTVYLQMNSLKPEDTAVYYCNVVRRGTTSYDDYEYWGQGTQVTVSS | high polyreactivity
2 | QVQHVESGGGLVQAGGSLRLRCAASGSIFVHNDMGWYRQAPGKERDLVAAISSGSSTNYADSVKGRFTISRDNAKNTVFLQMNSLKPEDTAVYYCAVTSPYSHGYSYWGADSRDYWGQGTQVTVSS | low polyreactivity
3 | QVQLVESGGGLVQAGGSLRLSCAASGITFFGYAMGWYRQAPGKERELVATISRSGGSTSYADSVKGRFTISRDNAKNTVYLQMNSLKPEDTAVYYCNNRTPYLRPIMDYWGQGTQVTVSS | high polyreactivity
4 | QVQLVESGGGLVNAGGSLRLSCAASGSTFYLYHMGWYRQAPGKEREFFARITWSGGSTYYADSVKGRFTLSRDNAKNTVYLQMNSLKPEDTAVYYCNKVYGQRNSYPDYDYWGQGSQVTVSS | high polyreactivity
5 | QVQLVESAGGLVQAGGSLRLSCAASGRNFYRNAMGWYRQAPGKERELVAAISYSGGSTYYADSVKGRFTISRDNAKNTVYLQMNSLKPEDTAVYYFAAAGDRWGNYWGQGTLVTVSS | high polyreactivity
6 | QVQLVDSGGGLVQAGGSLRLSCAASGRIFGPYAMVWYRQAPGKERELVASISYSGGSTYYADSVKGRFTISRDNAKNTVYLQMNSLKPEDTAVYYCAKGGYWGGYNYWGQGTQVTVSS | low polyreactivity
7 | QVQLLESGGGLVQAGGSLRLSCAASGFIFAKNAMGWYRKAPGKERELVAAISASGGRTYYADSVKGRFTISRDNAKNTVYLQMNSLKPEDTAVYYCAARRDGRSGSYNYWGQGTQVTVSS | high polyreactivity
8 | QVQLVDSGGGLVQAGGSLRLSCAASGINFVWNVMGWYRQAPGKERELVADITSGGRTHYADSVKGRFTISRDNAKNTVYVQMNSLKPDDTAVYYCAARKYWRYQNYDYWGQGTQVTVSS | low polyreactivity
9 | QVQLVESGGGLVQAGGSLRLSCAASGRIFWDNDMGWYRQAPGKERELVAAISRRGGSTSYADSVKGRFTISRDNAKNTVYLQMYSLKPEDTAVYYCIVRTRWTRVRRYDYWGQGTQVTVSS | high polyreactivity
10 | QVQLVESGGGLVQAGGSLRLSCAASGRIFRSYAMGWYRQAPGKERELVAAITWGGGRTYYADSVKGRFTISRDNAKNTVYLQMNSLKPEDTAVYYCNTLAYPYYRGSKYDYWGQGTQVTVSS | high polyreactivity
11 | QVQLVGSGGGLVQAGGSLRLSCAASGRTFRAYAMGWYRQAPGKERELVAAIRSSGGSTYADSVKGRFTISRDNAKNTVYLQMNSLKPEDTAVYYFAKPIAPARNAYPAYDYWGQGTQVTVSS | high polyreactivity
12 | QVQLVESGGGLVQAGGSLRLSCAASGSTYRYTMGWYRPAPGKERELVAAITGSAGSTYYADSVKGRFTISRDNAKNTVYLQMHSLKPEDTAVYYCNKVRPRKFWDYYYWGQGTQVTVSS | high polyreactivity
13 | QVQLVESGGGIDQAGGSLRLSCAATGLTFWLNPMGWYRQAPWKERELVAAIRYSGGGTYADSVKGRFTISRDNAKNTVSLQMNSLKQEVTAVYYCAALYNLGYPQFDYWGQGNQVTVSS | low polyreactivity
14 | QVQLGESGGGLVQAGGSLRLSCAASGRILAKYAMGWSRQAPWKEREFVAAISYSGGSTYYADSVKGRFTISRDNAKNTVYLQMNSLKPEDTAVYYCAARYTFDRWKFGYWGQGTQVTVSS | high polyreactivity
15 | QVQLVESGRGLVQAGGSLRLSCAASARTFPIYAMGCYRQAPWKEREFVAAITYSGGSTYYADSVKGRFTISRDNAKNTVYLQMNSLKPEDTAVYYCAVDGTKPYWHQRYDYSGQGTQVTVSS | low polyreactivity
16 | QVQLVESGGGLVQAGGSLRLSCAASGSIFPSYAMGWYRQAPGKERELVAAISTWNDGGTYYADSVKGRFTISRDNGKNTVYLQMNSLKPEDTAVYYCAADSPKYYYDYDYWGQGTQVTVSS | low polyreactivity
17 | QVQLVESGGGLVQAGGSLRLSCAASGSTFSFYAMGWYRQAPGKERELVAAIRAGTRTYYADSVKGRFTISRDNAKNTVYLQMNSLKPEDTAVYYCAATRRRYPYYYWGQGTQVTVSS | high polyreactivity
